The labels stand for the following.
B1: MAdCAM antibody Clone ID 60 of Table 6 (scFv) (scFv)
scFv: EVQLLESGGGLVQPGGSLRLSCAASGFTFDDYTMHWVRQAPGKGLEWVSDISGSGGSTYYADSVKGRFTISRDNSKNTLYLQMNSLRAEDTAVYYCAKDVVVAGTPLHFDYWGQGTLVTVSSGGGGSGGGGSGGGGSGGGGSDIQMTQSPSSLSASVGDRVTITCQASQDISNYLNWYQQKPGKAPKLLIYAASYLQSGVPSRFSGSGSGTDFTLTISSLQPEDFATYYCQQAHNYPITFGQGTRLEIK
B2: MAdCAM antibody Clone ID 1 of Table 6 (scFv) (scFv)
scFv: EVQLLESGGGLVQPGGSLRLSCAASGFTFSSYGMHWVRQAPGKGLEWVAVISDDGSDKYYADSVKGRFTISRDNSKNTLYLQMNSLRAEDTAVYYCTTSKYYYYYGMDVWGQGTTVTVSSGGGGSGGGGSGGGGSGGGGSDIQMTQSPSSLSASVGDRVTITCQASQDISKSLNWYQQKPGKAPKLLIYAASSLQSGVPSRFSGSGSGTDFTLTISSLQPEDFATYYCQQGYSTPLTFGGGTKVEIK
B3: MAdCAM antibody Clone ID 52 of Table 7 (IgG) (antibody, V domains shown)
VH: EVQLLESGGGLVQPGGSLRLSCAASGFTFDDYGMSWVRQAPGKGLEWVSYISSSSSYIYYADSVKGRFTISRDNSKNTLYLQMNSLRAEDTAVYYCAREIAAAGFYGMDVWGQGTTVTVSS
VL: not shown
notes: IgG format
B4: MAdCAM antibody Clone ID 16 of Table 7 (IgG) (antibody, V domains shown)
VH: EVQLLESGGGLVQPGGSLRLSCAASGFTFDDYAMHWVRQAPGKGLEWVSYIDASGTTIYYADSVKGRFTISRDNSKNTLYLQMNSLRAEDTAVYYCAKDQAAAGYWYFDLWGRGTLVTVSS
VL: DIQMTQSPSSLSASVGDRVTITCQASQDISNYLNWYQQKPGKAPKLLIYKASTLESGVPSRFSGSGSGTDFTLTISSLQPEDFATYYCQQSYSTPITFGQGTRLEIK
notes: IgG format
B5: MAdCAM antibody Clone ID 39 of Table 7 (IgG) (antibody, V domains shown)
VH: QVQLVQSGAEVKKPGASVKVSCKASGYTFTSYYMHWVRQAPGQGLEWMAWMNPNSGNTGYAQKFQGRVTMTRDTSTSTVYMELSSLRSEDTAVYYCARDYDFWSGSLGYWGQGTLVTVSS
VL: B4 VL with Q24R, D28G, N34A, K50A, T53S, E55Q, I96W, R103K, L104V
notes: IgG format
B6: MAdCAM antibody Clone ID 19 of Table 7 (IgG) (antibody, V domains shown)
VH: EVQLLESGGGLVQPGGSLRLSCAASGFTFEDYAMHWVRQAPGKGLEWVSYLNSDGGSTSYADSVKGRFTISRDNSKNTLYLQMNSLRAEDTAVYYCAKDYCTNGVCAFDYWGQGTLVTVSS
VL: B4 VL with Q24R, D28S, N31T, K50D, T53N, S56T, S93T, T94I
notes: IgG format
B7: MAdCAM antibody Clone ID 25 of Table 7 (IgG) (antibody, V domains shown)
VH: EVQLLESGGGLVQPGGSLRLSCAASGFTFSNAWMSWVRQAPGKGLEWVSTIVGNGGATYYADSVKGRFTISRDNSKNTLYLQMNSLRAEDTAVYYCARDNPLRWQGMDVWGQGTLVTVSS
VL: B4 VL with Q24R, K50A, T53S, E55Q, T94I, I96P, Q100P, R103K, L104V, E105D
notes: IgG format
B8: MAdCAM antibody Clone ID 37 of Table 7 (IgG) (antibody, V domains shown)
VH: EVQLLESGGGLVQPGGSLRLSCAASGFTFSDYGMPWVRQAPGKGLEWVSAISGSGGSTYYADSVKGRFTISRDNSKNTLYLQMNSLRAEDTAVYYCARDGGWQPAAILDYWGQGTLVTVSS
VL: B4 VL with Q24R, D28G, Y32N, K50D, T53N, S56T, I96L, R103K, L104V
notes: IgG format
B9: MAdCAM antibody Clone ID 59 of Table 7 (IgG) (antibody, V domains shown)
VH: B8 VH with T28S, P35H
VL: B4 VL with Q24R, D28G, Y32N, K50D, T53N, S56T, I96L, Q100G, R103K, L104V
notes: IgG format
B10: MAdCAM antibody Clone ID 18 of Table 7 (IgG) (antibody, V domains shown)
VH: QVQLVQSGAEVKKPGSSVKVSCKASGYTFTNYYMHWVRQAPGQGLEWMGGIIPIVDRVKYAQKFQGRVTITADESTSTAYMELSSLRSEDTAVYYCAKGRYTVNYYYGMDVWGQGTTVTVSS
VL: B4 VL with S26N, K50R, T53K, S56A, Y92S, S93E, T94I, I96Y, T97S, R103K
notes: IgG format
B11: MAdCAM antibody Clone ID 57 of Table 7 (IgG) (antibody, V domains shown)
VH: EVQLLESGGGLVQPGGSLRLSCAASGFSVSSNYMSWVRQAPGKGLEWVAGISYDGSSKPYADSVKGRFTISRDNSKNTLYLQMNSLRAEDTAVYYCARSRGIAARPLQHWGQGTLVTVSS
VL: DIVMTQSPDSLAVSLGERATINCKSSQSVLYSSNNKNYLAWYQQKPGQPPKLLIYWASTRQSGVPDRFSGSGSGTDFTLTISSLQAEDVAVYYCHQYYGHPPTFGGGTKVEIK
notes: IgG format
B12: MAdCAM antibody Clone ID 44 of Table 7 (IgG) (antibody, V domains shown)
VH: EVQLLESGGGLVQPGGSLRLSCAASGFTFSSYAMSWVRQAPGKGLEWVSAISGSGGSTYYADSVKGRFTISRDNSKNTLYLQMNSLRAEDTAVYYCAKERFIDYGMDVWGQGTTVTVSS
VL: DIQMTQSPSSLSASVGDRVTITCQASQDISNYLNWYQQKPGKAPKLLIYAASSLQSGVPSRFSGSGSGTDFTLTISSLQPEDFATYYCQQTYSGWTFGPGTKVDIK
notes: IgG format
B13: MAdCAM antibody Clone ID 38 of Table 7 (IgG) (antibody, V domains shown)
VH: QVQLVQSGAEVKKPGASVKVSCKASGYTFTDYFLHWVRQAPGQGLEWMGWMNPTSGNTGYAQKFQGRVTMTRDTSTSTVYMELSSLRSEDTAVYYCAREGEGSGFDYWGQGTLVTVSS
VL: DIQMTQSPSSLSASVGDRVTITCRASQGINSWLAWYQQKPGKAPKLLIYDASNLETGVPSRFSGSGSGTDFTLTISSLQPEDFATYYCQQSYSTPLTFGGGTKVEIK
notes: IgG format
B14: MAdCAM antibody Clone ID 21 of Table 7 (IgG) (antibody, V domains shown)
VH: EVQLVESGGGLVKPGGSLRLSCAASGFTFSSYWMSWVRQAPGKGLEWVSYISGDSGYTNYAAPVKGRFTISRDDSKNTLYLQMNSLKTEDTAVYYCARANSSGWYDWYFDLWGRGTLVTVSS
VL: not shown
notes: IgG format
B15: MAdCAM antibody Clone ID 34 of Table 7 (IgG) (antibody, V domains shown)
VH: QVQLVQSGAEVKKPGASVKVSCKASGYTFTGYYIHWVRQAPGQGLEWMGWMNPNSGNTGYAQKFQGRVTMTRDTSTSTVYMELSSLRSEDTAVYYCARDPGFLGYCSGGSCYDGWFDPWGQGTLVTVSS
VL: DIQMTQSPSSLSASVGDRVTITCRASQSISSYLHWYQQKPGKAPKLLIYAASSLQSGVPSRFSGSGSGTDFTLTISSLQPEDFATYYCQQSYTAPYTFGQGTKLEIK
notes: IgG format
B16: MAdCAM antibody Clone ID 43 of Table 7 (IgG) (antibody, V domains shown)
VH: QVQLVQSGAEVKKPGASVKVSCKASGYTFTSYGISWVRQAPGQGLEWMGWMHPKSGDTGLTQKFQGRVTMTRDTSTSTVYMELSSLRSEDTAVYYCARDTPYYYYGMDVWGQGTTVTVSS
VL: B15 VL with Y32W, H34A, T93S, A94V, Y96I, L104V
notes: IgG format
B17: MAdCAM antibody Clone ID 42 of Table 7 (IgG) (antibody, V domains shown)
VH: QVQLVQSGAEVKKPGASVKVSCKASGYTLTDYYMHWVRQAPGQGLEWMGIINPSGGSTSYAQKFQGRVTMTRDTSTSTVYMELSSLRSEDTAVYYCAREEYSSSSGYFDYWGQGTLVTVSS
VL: B13 VL with N30S, D50A, N53S, E55Q, T56S, G100Q
notes: IgG format
B18: MAdCAM antibody Clone ID 41 of Table 7 (IgG) (antibody, V domains shown)
VH: QVQLVQSGAEVKKPGASVKVSCKASGYTFTSYYMHWVRQAPGQGLEWMGIINPSGGSTSYAQKFQGRVTMTRDTSTSTVYMELSSLRSEDTAVYYCARDTGYSYGRYYYYGMDVWGQGTLVTVSS
VL: B13 VL with G28S, N30G, S31R, E55Q, T56S, T94I, L96I, G100Q
notes: IgG format

Residue numbers refer to the chain shown, from its start.

One assay addresses T1, human MAdCAM expressed on cells (human, UniProt Q13477 19-382).
T1 construct: whole, on cells; also called MADCAM1
T1 sequence (looked up): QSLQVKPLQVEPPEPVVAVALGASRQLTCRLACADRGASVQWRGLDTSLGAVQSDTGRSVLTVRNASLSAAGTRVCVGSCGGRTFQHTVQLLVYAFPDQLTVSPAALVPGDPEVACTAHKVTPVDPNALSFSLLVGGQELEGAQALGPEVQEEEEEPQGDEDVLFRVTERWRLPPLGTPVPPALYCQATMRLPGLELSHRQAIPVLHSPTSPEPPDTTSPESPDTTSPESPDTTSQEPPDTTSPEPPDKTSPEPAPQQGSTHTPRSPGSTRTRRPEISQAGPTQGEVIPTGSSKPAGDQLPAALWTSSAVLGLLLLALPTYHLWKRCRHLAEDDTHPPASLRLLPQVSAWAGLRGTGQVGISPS
Description: cell binding.
Turning to B1, the binding result is listed as “binds”.

With B2, the binding result was “binds”.

The target in the next assay is T2, mouse MAdCAM expressed on cells (mouse, UniProt Q61826 22-405).
T2 construct: whole, on cells
T2 sequence (looked up): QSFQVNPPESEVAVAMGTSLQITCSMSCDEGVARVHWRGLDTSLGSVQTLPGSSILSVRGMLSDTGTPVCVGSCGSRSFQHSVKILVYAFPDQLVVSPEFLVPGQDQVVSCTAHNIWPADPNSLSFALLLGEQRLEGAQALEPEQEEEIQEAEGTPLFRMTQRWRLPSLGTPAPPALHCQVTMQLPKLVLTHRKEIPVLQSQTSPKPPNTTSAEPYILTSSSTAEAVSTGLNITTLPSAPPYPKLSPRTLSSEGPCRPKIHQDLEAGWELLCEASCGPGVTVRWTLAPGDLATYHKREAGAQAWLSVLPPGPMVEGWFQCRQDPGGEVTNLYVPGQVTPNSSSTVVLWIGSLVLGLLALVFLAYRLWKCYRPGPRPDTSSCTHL
Description: cell binding.
B1: the binding result is listed as “binds”.

In the next assay the target is T1, human MAdCAM expressed on cells. Description: cell binding. The source holds these as a separate data set.
As for B3, the binding result was “binds”.

B4: the binding result is reported as “binds”.

Consider B5, for which the binding result is listed as “binds”.

B6: the binding result is “binds”.

As for B7, the binding result was “binds”.

B8: the binding result is reported as “binds”.

Take B9: the binding result is on record as “binds”.

As to B10, the binding result was “binds”.

With B11, the binding result is “binds”.

With B12, the binding result is on record as “binds”.

Turning to B13, the binding result is given as “binds”.

As to B14, the binding result is on record as “binds”.

Take B15: the binding result was “binds”.

For the molecule B16, the binding result is given as “binds”.

On to B17, for which the binding result is reported as “binds”.

With B18, the binding result is recorded as “binds”.

The target in a further assay is T2, mouse MAdCAM expressed on cells. The assay can be described thus: cell binding. The source holds these as a separate data set.
As for B3, the binding result is recorded as “no binding”.

For B4, the binding result is on record as “no binding”.

B5: the binding result is given as “no binding”.

In the case of B6, the binding result is “no binding”.

Regarding B7, the binding result is reported as “no binding”.

As for B8, the binding result is reported as “no binding”.

Regarding B9, the binding result is “no binding”.

Regarding B10, the binding result is listed as “no binding”.

As for B11, the binding result was “no binding”.

In the case of B12, the binding result is on record as “no binding”.

In the case of B13, the binding result was “no binding”.

For B14, the binding result was “no binding”.

With B15, the binding result is reported as “no binding”.

On to B16, for which the binding result is on record as “no binding”.

With B17, the binding result is on record as “no binding”.

As to B18, the binding result is reported as “no binding”.

The next assay concerns the target T3, human MAdCAM protein (human, UniProt Q13477 19-317).
T3 construct: used for Octet, SPR, ELISA and plate capture; construct not described; also called recombinant human MAdCAM; soluble monomeric human MAdCAM
T3 sequence (looked up): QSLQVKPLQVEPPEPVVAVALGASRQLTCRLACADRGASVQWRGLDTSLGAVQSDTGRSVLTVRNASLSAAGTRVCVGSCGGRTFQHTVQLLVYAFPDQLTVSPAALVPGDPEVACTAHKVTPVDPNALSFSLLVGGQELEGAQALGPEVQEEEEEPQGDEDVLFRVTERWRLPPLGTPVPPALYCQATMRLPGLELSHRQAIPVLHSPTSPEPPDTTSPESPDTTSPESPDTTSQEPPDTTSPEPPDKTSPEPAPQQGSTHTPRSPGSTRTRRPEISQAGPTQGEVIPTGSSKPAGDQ
The assay can be described thus: Octet.
On to B1, for which the binding result is reported as “binds”.

On to B2, for which the binding result is “binds”.

Source of the values: patent US20200392228A1 (PANDION OPERATIONS, published 2020).
